Experiments:
[1] = test system: FGF21-signaling in 293/KLB cells; test: Block of FGF21-signaling in 293/KLB cells; type: cell-based; conditions: Table 1, FGF21 associated antagonist
Text: The sequence homology in these endocrine FGF peptides (FGF23^180-205, FGF23^212-239, FGF19^191-216 and FGF21^185-209) is provided in FIG. 2.

FGFR/KL complex = test: FGF23-signaling activity (stimulation of Erk-phosphorylation) in 293/KL cells; type: cell-based, human; conditions: for EC50: Table 3, p-Erk
Description: (§1) FIGS. 5A-5D provide data relating to the activities of FGF23-analogs containing one or two active KL-interaction sites by in vitro and in vivo methods. […] FIGS. 5B-5D are scatter plots presenting an in vivo assessment of FGF23-activity in mice. WT mice were treated with 0.5 mg/kg body weight with either FGF23, FGF23 A^188, FGF23 A^222, FGF23 A^188,222, or vehicle, n=5 or 10/group, and post 3-hours the gene expression changes were studied by quantitative real time PCR for target genes, FIG. 5B represents measurement of Cyp24a1, FIG. 5C represents measurement of Cyp27b1, and FIG. 5D represents measurement of Egr1. The data is presented as a scatter plot where each dot represents one animal, mean ±SEM. One-way ANOVA with Tukey's comparison was employed for statistical analyses where***P<0.001 vs. vehicle; #P<0.05, ##P<0.01, ###P<0.001 vs FGF23; and $$$P<0.001 vs FGF23 A^188,222 was calculated.
Whether FGF23-based agonism can employ each of the two KL-interaction sites as witnessed in the C72 peptide antagonist was studied. To do so, a selective mutation at position Asp188 or Asp222 was made in the native FGF23. […] This is consistent with prior reports where C-terminal sequence deletion after residue 205 position had no apparent effect on cellular signaling (FIG. 5A, Table 3). […] Asp188 residue is purported to be singularly essential for KL-binding and FGF23 activity, and its importance was substantiated by the lack of antagonism when the C26 peptide was similarly mutated from Asp to Ala (FIG. 4A). […] To confirm that these observations were not resulting from unexpected changes in higher order structure that was not apparent in biosynthesis, purification, or formulation of the mutant proteins their biophysical integrity were directly assessed by thermal denaturation.
The N-terminal domain of the endocrine FGFs primarily determines the FGFR-activation while the C-terminal sequence guides the co-receptor specificity with a Klotho co-receptor, KL or KLB. The receptor complex specificity among the endocrine FGF-proteins can be modulated by altering their C-terminal domains. Consequently, two FGF21-23 chimeric protein analogs were prepared containing the FGF21 N-terminal core with its C-terminal KLB-binding peptide replaced with an FGF23 C-terminal peptide sequence constituted by C72 (FGF21-23 C72) or C26 (FGF21-23 C26) (Table 3).

[2] = test system: FGFR/KL-downstream targets Cyp24a1, Cyp27b1 and Egr1; test: Mouse kidney gene expression after FGF23 protein analogs (quantitative real time PCR); type: in vivo; conditions: WT mice, 0.5 mg/kg, 3 hours
Description: as §1
To test whether C28 as the second KL-interaction site can promote FGF23 in vivo activity, the single site FGF23-analogs were assessed for their ability to alter kidney gene expression in normal mice. Four proteins (FGF23, FGF23 A188, FGF23 A222 or FGF23 A188, 222 analogs) were each dosed to mice 0.5 mg/kg and 3 hours later quantitative real time PCR was employed to assess kidney mRNA expression of the FGFR/KL-downstream targets Cyp24a1, Cyp27b1 and early growth response protein 1 (Egr1). […] This is not surprising since the optimal treatment time for Egrl modulation is as early as 1 hour for FGF-signaling measurements. The magnitude in upregulation of gene expression for Cyp24a1 was the highest, with twenty-fold induction by native FGF23 treatment (FIG. 5B). […] Similarly, the Egrl induction is reduced for FGF23 A188 and FGF23 A222 analogs as compared to native FGF23 (P<0.05, FIG. 5D), but no difference is observed among the analogs and FGF23 for Cyp27b1 (FIG. 5C).

Sequence of FGFR/KL complex (Q9UEF7 34-1012, one chain of several): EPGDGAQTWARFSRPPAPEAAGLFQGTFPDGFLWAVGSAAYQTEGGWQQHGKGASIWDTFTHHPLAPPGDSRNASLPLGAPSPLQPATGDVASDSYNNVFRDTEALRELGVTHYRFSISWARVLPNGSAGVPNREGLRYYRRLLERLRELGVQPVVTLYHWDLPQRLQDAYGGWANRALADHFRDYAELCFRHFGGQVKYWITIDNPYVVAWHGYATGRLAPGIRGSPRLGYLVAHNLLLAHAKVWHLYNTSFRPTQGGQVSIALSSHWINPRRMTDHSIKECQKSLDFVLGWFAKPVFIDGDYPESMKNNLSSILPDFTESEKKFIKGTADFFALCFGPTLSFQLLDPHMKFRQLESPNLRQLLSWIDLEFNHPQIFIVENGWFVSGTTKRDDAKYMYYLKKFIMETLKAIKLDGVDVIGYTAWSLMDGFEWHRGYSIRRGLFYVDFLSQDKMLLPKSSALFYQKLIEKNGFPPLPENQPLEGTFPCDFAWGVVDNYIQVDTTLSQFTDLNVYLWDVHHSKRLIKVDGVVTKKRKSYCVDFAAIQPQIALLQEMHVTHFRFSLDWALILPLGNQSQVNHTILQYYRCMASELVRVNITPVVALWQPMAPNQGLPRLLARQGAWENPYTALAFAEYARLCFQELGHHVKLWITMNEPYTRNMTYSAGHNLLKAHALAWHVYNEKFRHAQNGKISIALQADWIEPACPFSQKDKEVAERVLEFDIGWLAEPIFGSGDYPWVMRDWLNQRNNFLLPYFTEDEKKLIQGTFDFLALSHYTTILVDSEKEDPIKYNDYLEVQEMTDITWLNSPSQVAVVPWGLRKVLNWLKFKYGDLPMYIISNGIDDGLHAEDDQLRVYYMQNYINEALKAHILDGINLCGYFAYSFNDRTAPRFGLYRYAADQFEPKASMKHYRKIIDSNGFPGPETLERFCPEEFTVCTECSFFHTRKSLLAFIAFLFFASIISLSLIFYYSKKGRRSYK

| Molecule | IC50 [1] [nM] | FGF23-type agonism / FGFR/KL activation (in words) (FGFR/KL complex) | EC50 (FGFR/KL complex) [nM] | kidney Cyp24a1 mRNA expression vs vehicle [2] | kidney Cyp27b1 mRNA expression vs vehicle [2] | Egr1 induction as compared to native FGF23 ([2]; kidney) | magnitude of Cyp24a1 effect as compared to native FGF23 ([2]; kidney) | magnitude of upregulation of Cyp24a1 gene expression (induction) ([2]; kidney) |
| --- | --- | --- | --- | --- | --- | --- | --- | --- |
| 21C25: FGF21 associated antagonist (FGF21^185-209, C25) (PPDVGSSDPLSMVGPSQGRSPSYAS) | 75.2 ± 19 | – | – | – | – | – | – | – |
| FGF23 A^188: FGF23^25-240, A^188 (protein) YPNASPLLGSSWGGLIHLYTATARNSYHLQIHKNGHVDGAPHQTIYSALMIRSEDAGFVVITGVMSRRYLCMDFRGNIFGSHYFDPENCRFQHQTLENGYDVYHSPQYHFLVSLGRAKRAFLPGMNPPPYSQFLSRRNEIPLIHFNTPIPRRHTRSAEDDSERAPLNVLKPRARMTPAPASCSQELPSAEDNSPMASDPLGVVRGGRVNTHAGGTG | – | retained full potency | 0.28 ± 0.08 | significant elevation | coordinate suppression | reduced | fractionally reduced | – |
| FGF23: FGF23^25-240, native protein (protein) YPNASPLLGSSWGGLIHLYTATARNSYHLQIHKNGHVDGAPHQTIYSALMIRSEDAGFVVITGVMSRRYLCMDFRGNIFGSHYFDPENCRFQHQTLENGYDVYHSPQYHFLVSLGRAKRAFLPGMNPPPYSQFLSRRNEIPLIHFNTPIPRRHTRSAEDDSERDPLNVLKPRARMTPAPASCSQELPSAEDNSPMASDPLGVVRGGRVNTHAGGTG | – | – | 0.16 ± 0.05 | significant elevation | coordinate suppression | – | – | twenty-fold |
| FGF23 A^188,222: FGF23^25-240, A^188,222 (protein) YPNASPLLGSSWGGLIHLYTATARNSYHLQIHKNGHVDGAPHQTIYSALMIRSEDAGFVVITGVMSRRYLCMDFRGNIFGSHYFDPENCRFQHQTLENGYDVYHSPQYHFLVSLGRAKRAFLPGMNPPPYSQFLSRRNEIPLIHFNTPIPRRHTRSAEDDSERAPLNVLKPRARMTPAPASCSQELPSAEDNSPMASAPLGVVRGGRVNTHAGGTG | – | bioactivity was abrogated | – | inactive | inactive | statistically different | – | – |
